From patent US20230242610A1 come the findings set out here.

One assay deals with TMEM16A-GFP (mouse) (UniProt Q8BHY3). Put plainly: SiMPull, GFP photobleaching step count (stoichiometry).
For a further assay, the target named is mTMEM16A (mouse) (UniProt Q8BHY3). Put plainly: cell-based or functional assay.
Sequence of mTMEM16A (mouse) (Q8BHY3 whole entry): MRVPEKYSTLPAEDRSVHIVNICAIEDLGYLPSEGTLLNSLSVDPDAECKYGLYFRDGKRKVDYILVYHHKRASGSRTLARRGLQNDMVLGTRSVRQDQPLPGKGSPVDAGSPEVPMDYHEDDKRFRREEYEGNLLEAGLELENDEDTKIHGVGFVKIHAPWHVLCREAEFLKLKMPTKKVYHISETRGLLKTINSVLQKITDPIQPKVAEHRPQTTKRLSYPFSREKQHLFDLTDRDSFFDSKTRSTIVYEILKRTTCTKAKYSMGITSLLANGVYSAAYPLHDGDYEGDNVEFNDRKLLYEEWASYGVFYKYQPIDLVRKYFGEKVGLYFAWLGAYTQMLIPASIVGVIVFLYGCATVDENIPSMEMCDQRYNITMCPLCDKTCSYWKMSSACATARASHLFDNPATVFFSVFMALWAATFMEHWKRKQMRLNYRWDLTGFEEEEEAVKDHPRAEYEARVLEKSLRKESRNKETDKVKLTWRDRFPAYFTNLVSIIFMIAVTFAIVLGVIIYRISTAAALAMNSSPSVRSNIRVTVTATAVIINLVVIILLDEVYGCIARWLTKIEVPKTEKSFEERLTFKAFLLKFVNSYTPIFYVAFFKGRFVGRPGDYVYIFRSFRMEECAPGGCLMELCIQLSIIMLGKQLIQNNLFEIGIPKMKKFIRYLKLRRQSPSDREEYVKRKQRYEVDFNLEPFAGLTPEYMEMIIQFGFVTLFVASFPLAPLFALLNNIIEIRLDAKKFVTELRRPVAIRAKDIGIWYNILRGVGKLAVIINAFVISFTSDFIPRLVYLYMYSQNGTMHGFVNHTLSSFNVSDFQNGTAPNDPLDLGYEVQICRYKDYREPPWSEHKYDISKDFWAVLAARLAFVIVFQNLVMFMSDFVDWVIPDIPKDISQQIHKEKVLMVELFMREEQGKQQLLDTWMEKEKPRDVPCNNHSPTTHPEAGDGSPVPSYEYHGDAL

HA-KCNE1 (from UniProt P15382 1-129): in the assay with TMEM16A-GFP (mouse), the share of pulled-down spots with one-step photobleaching of TMEM16A-GFP came out at 20%, the share of pulled-down spots with three-step photobleaching of TMEM16A-GFP came out at 10% and the share of pulled-down spots with two-step photobleaching of TMEM16A-GFP worked out at 70%. Regarding KCNE1 T7I (from UniProt P15382 1-129), the current density at +100 mV, HEK293T co-expressing TMEM16A and KCNE1 T7I in the assay with mTMEM16A (mouse) was determined as 24.7 pA/pF. In the assay with mTMEM16A (mouse), KCNE1S38G (from UniProt P15382 1-129) registered a current density at +100 mV, HEK293T co-expressing TMEM16A and KCNE1 S38G of 6.96 pA/pF. Regarding KCNE1ΔCt (from UniProt P15382 1-66), the current density at +100 mV, HEK293T co-expressing TMEM16A and KCNE1ΔCt in the assay with mTMEM16A (mouse) came out at 25 pA/pF. Consider KCNE1ΔNt16 (from UniProt P15382 16-129), for which, in the assay with mTMEM16A (mouse), the current density at +100 mV, HEK293T co-expressing TMEM16A and KCNE1ΔNt16 is 25.4 pA/pF. KCNE1ΔNt30 (from UniProt P15382 30-129) showed a current density at +100 mV, HEK293T co-expressing TMEM16A and KCNE1ΔNt30 in the assay with mTMEM16A (mouse) of 25.2 pA/pF. Consider KCNE1ΔNt (from UniProt P15382 43-129), for which the current density at +100 mV, HEK293T co-expressing TMEM16A and KCNE1ΔNt with mTMEM16A (mouse) worked out at 6.56 pA/pF. In the assay with mTMEM16A (mouse), hKCNE1 (from UniProt P15382 1-129) yielded a current density at +100 mV with 1 mM BAPTA, HEK293T, TMEM16A co-expressed with KCNE1 (against TMEM16A alone) of 22 pA/pF and a current density at +100 mV, whole-cell patch clamp, HEK293T co-expressing both proteins of 18.1 pA/pF.
